Measurements as given in the supplement of paper PMC9170038.

Test system: MS2 coat protein
Assay: apparent KD of MS2 coat protein; higher = weaker reporter binding
Details: Eterna round: R107
Method: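 RNA-MaP round R107: designed RNA switches with theophylline, tryptophan, arginine or FMN aptamers are transcribed on-chip within common flanks. They are titrated with SNAP-549-labelled MS2 coat protein in RNA-MaP buffer (100 mM Tris pH 7.5, 80 mM KCl, 4 mM MgCl2), without ligand or with the indicated ligand. Median apparent KD per design.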

[1] = input ligand: theophylline 20 uM
[2] = input ligand: theophylline 2 mM
[3] = input ligand: tryptophan 2.4 mM

Sequence	apparent KD of MS2 coat protein (input ligand: arginine 13.2 mM)	apparent KD of MS2 coat protein [1]	apparent KD of MS2 coat protein [2]	apparent KD of MS2 coat protein (input ligand: none)	apparent KD of MS2 coat protein [3]
ACGUCGCAUAGGAAAACUAUGUGACGAAAUCGAGGACCGGUACGGCCGCCACUCGUCCUCAACAUGAGGAUCACCCAUGUAAUAA [Mat - Exclusion - Trytophan A - D7]	19.3 nM	23.3 nM	22.3 nM		
ACUAGUUGUGCAGAUACCAGACACGAGGAUCACCCGUGUUUGGGAUGUUCGCAUCUUCCUGUCCCUUGGCAGCUGUACAUCUAGA [Omei Theo B Exc v8]	15.8 nM	23.5 nM	221 nM	15.1 nM	17 nM
ACUGGAGGUGGAAGGAGCGGGAGACAUGAGCAUCACAUGAGGAUCACCCAUGUAGGAUCAUCCCAGGUAGGUCGCCAUGUCGAAA [rtfemullin]	120 nM	292 nM	431 nM	276 nM	189 nM
AGAAUAACACAUGAGGAUCACCCAUGUGAUACCAGCUAGGAAACUAGCCCUUGGCAGCACAUAAGGUGAUCCAGCUGCCAAGAAU [(M1)-(M2)-(T1)-(T2)-(M)'-(T)'_Design1_2/19/17]	65.2 nM	175 nM			102 nM
AGACACAUGAGGAUCACCCAUGUACACGAGCGAGGACCGGUACGGCCGCCACUCGUCCAAGCAACUAAUGAGACUCGUAAGAUGG [theeternabot_sameState_MS2_Trp_A_5]	17.1 nM	31.6 nM	23.4 nM		
AGACAUGAGGAUCACCCAUGUAGCAUGGAUACCAGAUCCAGAUUUAUCCCUUGGCAGCUGUGGUACAGUGAUGGAUUGCUCCUAG [Exclusion - Theophylline A (Freestyle 8)]	46.3 nM	93.6 nM			61.9 nM
AGACAUGAGGAUCACCCAUGUAGCAUGGAUACCAGAUGUAGAUUUAUCCCUUGGCAGCUGUGGUAAAGUGAUGCAUUGCUCCUAG [Exclusion - Theophylline A (Freestyle 5)]	28.5 nM	50.1 nM			34 nM
AGACUUCGCAUAGGAAAACUAUGUGAAGUCCGAGGACCGGUACGGCCGCCACUCGUCCUCAACAUGAGGAUCACCCAUGUAAUAA [#OpenEnded #CuTurnoff #Tail]	21.1 nM	26 nM	23.5 nM		
AGAGCAUUGACGGCCGCCACUCAUGUCACAUGAGGAUCACCCAUGUGAUGGGUAAUUGCCCGGUUGAGGACCGGGUCAAUGCUCA [Omei Tryp SS B v4]	5.88 nM	11.3 nM	10.1 nM	8.32 nM	9.74 nM
AGAGCAUUGACGGCCGCCACUCAUGUCACAUGAGGAUCACCCAUGUGAUGGGUGAUAGCCCGGUUGAGGACCGGGUCAAUGCUCA [Omei Tryp SS B v1]	18.4 nM	25.3 nM	20.4 nM		
AGAGCAUUGACGGCCGCCACUCGUGUCACAUGAGGAUCACCCAUGUGAUGGGUGAUAGCCCGGUUGAGGACCGGGUCAAUGCUCA [Omei Tryp SS B v7]	13.1 nM	16.8 nM	16.2 nM		
AGAGUCAGACAAAAGUCUGGCUCAGCCGAAGGAGCGUCCGAAAGGACAGGUAGGUCGCGGUUACAUGAGGAUCACCCAUGUUCCU [ArgAS 7 #OpenEnded]	66.8 nM	177 nM	184 nM	136 nM	145 nM
AGAUGCCACUGUGGAUAGCACGAUGCCGAUACCAGCUAGGAAACUAGCCCUUGGCAGCGGUACAUGAGGAUCACCCAUGUAUCCU [EThA NP+V+V2 #9]	12.2 nM	18.3 nM			12.9 nM
AGAUUCGACACGGCCGCCACUUUCAGUGGCUGGUGUCAUGGUGCACAUGAGGAUCACCCAUGUGGAAGGACCGGGUGUUGAGUCU [XTryp B #26]	12.3 nM	21.8 nM	17.2 nM		
AGCAACAAGUCGGCCGCCACUCAAUAAACAUGAGGAUCACCCAUGUAAAUAACAUGAUAAUAAUAGAGGACCGGGACAGUUGCAU [JR_SSTryptoB_Sub015]	13 nM	17.1 nM	15.1 nM		
AGCACGGUGAUGGUAGCCGGACGCUAAGUACGAGGACCGGUACGGCCGCCACUCGGAGUCCUACGACAUGAGGAUCACCCAUGUA [Same State Trp A GF12]	34.3 nM	50 nM	42.6 nM	34.9 nM	33.6 nM
AGCACUGUGACGGCCGCCACUACAUAAUAGGGUGGUCAGGUUCAUAUACAUGAGGAUCACCCAUGUAGGACCGGGUCUCAGUGCA [Omei Trp Exc B A v6]	8.68 nM	12.7 nM	12.2 nM	10.6 nM	9.03 nM
AGCAUACAUUCUGAUACCAGAGACAUGAGGAUCACCCAUGUCCGAUCGUCCUGCCUCAGACUCCCUUGGCAGCAGGAUGUGUGCU [Exclusion Theophylline B GF6]	13.1 nM	17.6 nM			13.8 nM
AGCCACUCGAGUGAUCCUCACGAGUGGCAACGAGGACCGGUACGGCCGCCACUCGAAUAACAUGAGGAUCACCCAUGUUUAUAAU [#01 Tryptophan A - Same State]	51.1 nM	176 nM	258 nM		
AGCCACUCGAGUGAUCCUCACGAGUGGCAACGAGGACCGGUACGGCCGCCACUCGAAUCAACAUGAGGAUCACCCAUGUAAUAAU [Brourdmod01]	28.2 nM	123 nM	82.3 nM	76.3 nM	97.7 nM
AGCCAUGGAAACAUGGCGGCGGCAUGAGCGCGAGGACCGGUACGGCCGCCACUCGGGCGACAUGAGGAUCACCCAUGUUCCUCAU [ETA NP+V+V2 #22 Same Structure]	145 nM	312 nM	451 nM	289 nM	422 nM
AGCCAUGGAAACAUGGCGGCGGCUUGGGCGCGAGGACCGGUACGGCCGCCACUCGGGCAACAUGAGGAUCACCCAUGUUCCUCAU [ETA NP+V+V2 #18]	84.6 nM	245 nM	317 nM	128 nM	161 nM
AGCGACAUGCGUGAUACCAGCUACAUGAGGAUCACCCAUGUCAGCAGGGAACUGCUGUGUAGCCCUUGGCAGCACAGUGCAUGUC [Exclusion - Theophylline B (Freestyle 29)]	13 nM	12.3 nM	23.1 nM	10.8 nM	10.2 nM
AGCGAUUUCGGAAGGAGCGGUACAUGAGGAUCACCCAUGUAUUCAAUCGUGAUCGGCGCGUGCCAGGUAGGUCGCCGAAGGCGUC [Veatat]	12.4 nM	14.9 nM	10.9 nM	9.95 nM	11.9 nM
AGCGCAUCCGUAUAGGAUGCGCUCCAUGAAGGAGCGCGGGAAACCGCAGGUAGGUCGCGUGACAUGAGGAUCACCCAUGUGUAUU [#17 Same State - Arginine A]	16.9 nM	27.7 nM	22.8 nM	20 nM	20.9 nM
AGCGGCUCGAAAGAGUCGCACUCAUGUGAAGGAGCGCGCGUAAGCGCAGGUAGGUCGCACAUGAGGAUCACCCAUGUACCUUCUA [MAT - Exclusion Arginine A - Mod of Eli - D21]	68.5 nM	206 nM	262 nM	235 nM	118 nM
AGCUCGCAUCCUCUAGCGUCAAAGACGCGUCGAGGACCGGUACGGCCGCCACUCGACGUGAGGAUCACCCACGUCUAAGCGAGCA [TrypAX 10 #SwitchBubble #AlternativeMS2 #MS2Late #CuTurnoff]	19.7 nM	31.7 nM	30.6 nM	25.5 nM	295 nM
AGCUUGUAGUCGGCCGCCACUAAUAGGGAUCCUAUCGAGGCGGGUAACAUGAGGAUCACCCAUGUUAGGACCGGGACAGCGAGGA [Cetian]	10 nM	15.4 nM	11.6 nM	16.6 nM	10.8 nM
